Test results: US20200199241A1 (Chugai, published 2020)

B1: IgG1-F1021 (antibody)
heavy: QVQLQESGPGLVKPSETLSLTCAVSGHSISHDHAWSWVRQPPGEGLEWIGFISYSGITNYNPSLQGRVTISRDNSKNTLYLQMNSLRAEDTAVYYCARSLARTTAMDYWGEGTLVTVSSASTKGPSVFPLAPSSKSTSGGTAALGCLVKDYFPEPVTVSWNSGALTSGVHTFPAVLQSSGLYSLSSVVTVPSSSLGTQTYICNVNHKPSNTKVDKKVEPKSCDKTHTCPPCPAPELLGGDSVFLFPPKPKDVLYISRTPEVTCVVVDVSHEDPEVKFNWYVDGVEVHNAKTKPREEQYNSTYRVVSVLTVLHQDWLNGKEYKCKVSAKALPAPIEKTISKAKGQPREPQVYTLPPSRDELTKNQVSLTCLVKGFYPSDIAVEWESNGQPENNYKTTPPVLDSDGSFFLYSKLTVDKSRWQQGNVFSCSVMHEALHYHYTQKSLSLSP
light: not shown
notes: EU numbering; copies: 2 + 2
B2: IgG1-F1025 (antibody)
heavy: QVQLQESGPGLVKPSETLSLTCAVSGHSISHDHAWSWVRQPPGEGLEWIGFISYSGITNYNPSLQGRVTISRDNSKNTLYLQMNSLRAEDTAVYYCARSLARTTAMDYWGEGTLVTVSSASTKGPSVFPLAPSSKSTSGGTAALGCLVKDYFPEPVTVSWNSGALTSGVHTFPAVLQSSGLYSLSSVVTVPSSSLGTQTYICNVNHKPSNTKVDKKVEPKSCDKTHTCPPCPAPELLGGPDVFLFPPKPKDVLYISRTPEVTCVVVDVSHEDPEVKFNWYVDGVEVHNAKTKPREEQYNSTYRVVSVLQVLHADWLNGKEYKCKVSNDAYPAPIEKTISKAKGQPREPQVYTLPPSRDELTKNQVSLTCLVKGFYPSDIAVEWESNGQPENNYKTTPPVLDSDGSFFLYSKLTVDKSRWQQGNVFSCSVMHEALHYHVTQKSLSLSP
light: not shown
notes: EU numbering; copies: 2 + 2
B3: IgG1-F1037 (antibody)
heavy: QVQLQESGPGLVKPSETLSLTCAVSGHSISHDHAWSWVRQPPGEGLEWIGFISYSGITNYNPSLQGRVTISRDNSKNTLYLQMNSLRAEDTAVYYCARSLARTTAMDYWGEGTLVTVSSASTKGPSVFPLAPSSKSTSGGTAALGCLVKDYFPEPVTVSWNSGALTSGVHTFPAVLQSSGLYSLSSVVTVPSSSLGTQTYICNVNHKPSNTKVDKKVEPKSCDKTHTCPPCPAPELKGGPKVFLFPPKPKDTLYISRTPEVTCVVVDVSHEDPEVKFNWYVDGVEVHNAKTKPREEQYNSTYRVVSVLQVLHADWLNGKEYKCKVSNKALPAPIEKTISKAKGQPREPQVYTLPPSRDELTKNQVSLTCLVKGFYPSDIAVEWESNGQPENNYKTTPPVLDSDGSFFLYSKLTVDKSRWQQGNVFSCSVIHEALHYHVTQKSLSLSP
light: not shown
notes: EU numbering; copies: 2 + 2
B4: IgG1-F1036 (antibody)
heavy: QVQLQESGPGLVKPSETLSLTCAVSGHSISHDHAWSWVRQPPGEGLEWIGFISYSGITNYNPSLQGRVTISRDNSKNTLYLQMNSLRAEDTAVYYCARSLARTTAMDYWGEGTLVTVSSASTKGPSVFPLAPSSKSTSGGTAALGCLVKDYFPEPVTVSWNSGALTSGVHTFPAVLQSSGLYSLSSVVTVPSSSLGTQTYICNVNHKPSNTKVDKKVEPKSCDKTHTCPPCPAPELKGGPKVFLFPPKPKDTLYISRTPEVTCVVVDVSHEDPEVKFNWYVDGVEVHEAKTKPREEQYNSTYRVVSVLQVLHADWLNGKEYKCKVSNKALPAPIEKTISKAKGQPREPQVYTLPPSRDELTKNQVSLTCLVKGFYPSDIAVEWESNGQPENNYKTTPPVLDSDGSFFLYSKLTVDKSRWQQGNVFSCSVMHEALHYHVTQKSLSLSP
light: not shown
notes: EU numbering; copies: 2 + 2
B5: IgG1-F1026 (antibody)
heavy: QVQLQESGPGLVKPSETLSLTCAVSGHSISHDHAWSWVRQPPGEGLEWIGFISYSGITNYNPSLQGRVTISRDNSKNTLYLQMNSLRAEDTAVYYCARSLARTTAMDYWGEGTLVTVSSASTKGPSVFPLAPSSKSTSGGTAALGCLVKDYFPEPVTVSWNSGALTSGVHTFPAVLQSSGLYSLSSVVTVPSSSLGTQTYICNVNHKPSNTKVDKKVEPKSCDKTHTCPPCPAPELLGGPSVFLFPPKPKDTLYISRTPEVTCVVVDVSHEDPEVKFNWYVDGVEVHNAKTKPREEQYNSTYRVVSVLAVLHHDWLNGKEYKCKVSNKALPAPIEKTISKAKGQPREPQVYTLPPSRDELTKNQVSLTCLVKGFYPSDIAVEWESNGQPENNYKTTPPVLDSDGSFFLYSKLTVDKSRWQQGNVFSCSVMHEALHYHVTQKSLSLSP
light: not shown
notes: EU numbering; copies: 2 + 2
B6: IgG1-F1034 (antibody)
heavy: QVQLQESGPGLVKPSETLSLTCAVSGHSISHDHAWSWVRQPPGEGLEWIGFISYSGITNYNPSLQGRVTISRDNSKNTLYLQMNSLRAEDTAVYYCARSLARTTAMDYWGEGTLVTVSSASTKGPSVFPLAPSSKSTSGGTAALGCLVKDYFPEPVTVSWNSGALTSGVHTFPAVLQSSGLYSLSSVVTVPSSSLGTQTYICNVNHKPSNTKVDKKVEPKSCDKTHTCPPCPAPELKGGPKVFLFPPKPKDTLYISRTPEVTCVVVDVSHEDPEVKFNWYVDGVEVHNAKTKPREEQYNSTYRVVSVLTPLHQDWLNGKEYKCKVSNKALPAPIEKTISKAKGQPREPQVYTLPPSRDELTKNQVSLTCLVKGFYPSDIAVEWESNGQPENNYKTTPPVLDSDGSFFLYSKLTVDKSRWQQGNVFSCSVMHEALHYHVTQKSLSLSP
light: not shown
notes: EU numbering; copies: 2 + 2
B7: IgG1-F1032 (antibody)
heavy: QVQLQESGPGLVKPSETLSLTCAVSGHSISHDHAWSWVRQPPGEGLEWIGFISYSGITNYNPSLQGRVTISRDNSKNTLYLQMNSLRAEDTAVYYCARSLARTTAMDYWGEGTLVTVSSASTKGPSVFPLAPSSKSTSGGTAALGCLVKDYFPEPVTVSWNSGALTSGVHTFPAVLQSSGLYSLSSVVTVPSSSLGTQTYICNVNHKPSNTKVDKKVEPKSCDKTHTCPPCPAPELLGGDSVFLFPPKPKDVLYISRTPEVTCVVVDVSHEDPEVKFNWYVDGVEVHNAKTKPREEQYNSTYRVVSVLQVLHADWLNGKEYKCKVSGKALPAPIEKTISKAKGQPREPQVYTLPPSRDELTKNQVSLTCLVKGFYPSDIAVEWESNGQPENNYKTTPPVLDSDGSFFLYSKLTVDKSRWQQGNVFSCSVMHEALHYHVTQKSLSLSP
light: not shown
notes: EU numbering; copies: 2 + 2
B8: IgG1-F1027 (antibody)
heavy: QVQLQESGPGLVKPSETLSLTCAVSGHSISHDHAWSWVRQPPGEGLEWIGFISYSGITNYNPSLQGRVTISRDNSKNTLYLQMNSLRAEDTAVYYCARSLARTTAMDYWGEGTLVTVSSASTKGPSVFPLAPSSKSTSGGTAALGCLVKDYFPEPVTVSWNSGALTSGVHTFPAVLQSSGLYSLSSVVTVPSSSLGTQTYICNVNHKPSNTKVDKKVEPKSCDKTHTCPPCPAPELRGGPKVFLFPPKPKDTLYISRTPEVTCVVVDVSHEDPEVKFNWYVDGVEVHNAKTKPREEQYNSTYRVVSVLAVLHHDWLNGKEYKCKVSNKALPAPIEKTISKAKGQPREPQVYTLPPSRDELTKNQVSLTCLVKGFYPSDIAVEWESNGQPENNYKTTPPVLDSDGSFFLYSKLTVDKSRWQQGNVFSCSVMHEALHYHVTQKSLSLSP
light: not shown
notes: EU numbering; copies: 2 + 2
B9: IgG1-F1029 (antibody)
heavy: QVQLQESGPGLVKPSETLSLTCAVSGHSISHDHAWSWVRQPPGEGLEWIGFISYSGITNYNPSLQGRVTISRDNSKNTLYLQMNSLRAEDTAVYYCARSLARTTAMDYWGEGTLVTVSSASTKGPSVFPLAPSSKSTSGGTAALGCLVKDYFPEPVTVSWNSGALTSGVHTFPAVLQSSGLYSLSSVVTVPSSSLGTQTYICNVNHKPSNTKVDKKVEPKSCDKTHTCPPCPAPELLGGPSVFLFPPKPKDVLYISRTPEVTCVVVDVSHEDPEVKFNWYVDGVEVHNAKTKPREEQYNSTYRVVSVLQVLHADWLNGKEYKCKVSNKALPAPEEKTISKAKGQPREPQVYTLPPSRDELTKNQVSLTCLVKGFYPSDIAVEWESNGQPENNYKTTPPVLDSDGSFFLYSKLTVDKSRWQQGNVFSCSVMHEALHYHVTQKSLSLSP
light: not shown
notes: EU numbering; copies: 2 + 2
B10: IgG1-F1028 (antibody)
heavy: QVQLQESGPGLVKPSETLSLTCAVSGHSISHDHAWSWVRQPPGEGLEWIGFISYSGITNYNPSLQGRVTISRDNSKNTLYLQMNSLRAEDTAVYYCARSLARTTAMDYWGEGTLVTVSSASTKGPSVFPLAPSSKSTSGGTAALGCLVKDYFPEPVTVSWNSGALTSGVHTFPAVLQSSGLYSLSSVVTVPSSSLGTQTYICNVNHKPSNTKVDKKVEPKSCDKTHTCPPCPAPELLAGPDVFLFPPKPKDVLYISRTPEVTCVVVDVSHEDPEVKFNWYVDGVEVHNAKTKPREEQYNSTYRVVSVLQVLHADWLNGKEYKCKVSNKALPAPIEKTISKAKGQPREPQVYTLPPSRDELTKNQVSLTCLVKGFYPSDIAVEWESNGQPENNYKTTPPVLDSDGSFFLYSKLTVDKSRWQQGNVFSCSVMHEALHYHVTQKSLSLSP
light: not shown
notes: EU numbering; copies: 2 + 2
B11: IgG1-F1035 (antibody)
heavy: QVQLQESGPGLVKPSETLSLTCAVSGHSISHDHAWSWVRQPPGEGLEWIGFISYSGITNYNPSLQGRVTISRDNSKNTLYLQMNSLRAEDTAVYYCARSLARTTAMDYWGEGTLVTVSSASTKGPSVFPLAPSSKSTSGGTAALGCLVKDYFPEPVTVSWNSGALTSGVHTFPAVLQSSGLYSLSSVVTVPSSSLGTQTYICNVNHKPSNTKVDKKVEPKSCDKTHTCPPCPAPELKGGPKVFLFPPKPKDTLYISRTPEVTCVVVDVSHEDPEVKFNWYVDGVEVHNAKTKPREEQYNSTYRVVSVLQPLHADWLNGKEYKCKVSNKALPAPIEKTISKAKGQPREPQVYTLPPSRDELTKNQVSLTCLVKGFYPSDIAVEWESNGQPENNYKTTPPVLDSDGSFFLYSKLTVDKSRWQQGNVFSCSVMHEALHYHVTQKSLSLSP
light: not shown
notes: EU numbering; copies: 2 + 2
B12: IgG1-F1024 (antibody)
heavy: QVQLQESGPGLVKPSETLSLTCAVSGHSISHDHAWSWVRQPPGEGLEWIGFISYSGITNYNPSLQGRVTISRDNSKNTLYLQMNSLRAEDTAVYYCARSLARTTAMDYWGEGTLVTVSSASTKGPSVFPLAPSSKSTSGGTAALGCLVKDYFPEPVTVSWNSGALTSGVHTFPAVLQSSGLYSLSSVVTVPSSSLGTQTYICNVNHKPSNTKVDKKVEPKSCDKTHTCPPCPAPELLGGPSVFLFPPKPKDVLYISRTPEVTCVVVDVSHEDPEVKFNWYVDGVEVHNAKTKPREEQYNSTYRVVSVLQVLHADWLNGKEYKCKVSNDAYPAPIEKTISKAKGQPREPQVYTLPPSRDELTKNQVSLTCLVKGFYPSDIAVEWESNGQPENNYKTTPPVLDSDGSFFLYSKLTVDKSRWQQGNVFSCSVMHEALHYHVTQKSLSLSP
light: not shown
notes: EU numbering; copies: 2 + 2
B13: IgG1-F1023 (antibody)
heavy: QVQLQESGPGLVKPSETLSLTCAVSGHSISHDHAWSWVRQPPGEGLEWIGFISYSGITNYNPSLQGRVTISRDNSKNTLYLQMNSLRAEDTAVYYCARSLARTTAMDYWGEGTLVTVSSASTKGPSVFPLAPSSKSTSGGTAALGCLVKDYFPEPVTVSWNSGALTSGVHTFPAVLQSSGLYSLSSVVTVPSSSLGTQTYICNVNHKPSNTKVDKKVEPKSCDKTHTCPPCPAPELLGGPDVFLFPPKPKDVLYISRTPEVTCVVVDVSHEDPEVKFNWYVDGVEVHNAKTKPREEQYNSTYRVVSVLQVLHADWLNGKEYKCKVSNKALPAPIEKTISKAKGQPREPQVYTLPPSRDELTKNQVSLTCLVKGFYPSDIAVEWESNGQPENNYKTTPPVLDSDGSFFLYSKLTVDKSRWQQGNVFSCSVMHEALHYHVTQKSLSLSP
light: not shown
notes: EU numbering; copies: 2 + 2

Each binder was assayed against T1, soluble human FcRn complexed with β2-microglobulin (human, UniProt P61769 21-119, limits assumed) (assay: Biacore SPR, pH 7.0;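 further: test antibodies captured on a Protein L chip with human FcRn flowed over as analyte, KD obtained as the ratio of dissociation to association rate constants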).
T1 construct: also called hFcRn
T1 sequence (chain, as listed by the source limits assumed, chain 1 of 2): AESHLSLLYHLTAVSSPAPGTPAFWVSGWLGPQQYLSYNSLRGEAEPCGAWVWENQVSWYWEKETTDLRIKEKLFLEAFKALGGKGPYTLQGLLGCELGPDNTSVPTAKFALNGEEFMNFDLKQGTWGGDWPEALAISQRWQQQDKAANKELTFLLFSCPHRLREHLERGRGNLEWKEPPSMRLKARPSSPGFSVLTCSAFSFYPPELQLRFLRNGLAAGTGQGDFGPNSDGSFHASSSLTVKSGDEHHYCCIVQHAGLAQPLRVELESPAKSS
T1 sequence (P61769 21-119 limits assumed, chain 2 of 2): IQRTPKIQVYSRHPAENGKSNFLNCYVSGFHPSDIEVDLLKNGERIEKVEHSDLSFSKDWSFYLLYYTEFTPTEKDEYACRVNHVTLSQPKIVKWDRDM

**Q.** B1 was tested. Which Kd did it give?
**A.** 330 nM

**Q.** How did the Kd turn out when B2 was run?
**A.** 36 nM

**Q.** B3 was tested. Which Kd did it give?
**A.** 61 nM

**Q.** With B4 as the binder, how does the Kd read?
**A.** 14 nM

**Q.** Which Kd does the source give for B5 here?
**A.** 84 nM

**Q.** How did the Kd turn out when B6 was run?
**A.** 15 nM

**Q.** B7 was tested. Which Kd did it give?
**A.** 43 nM

**Q.** For B8, which Kd is on record?
**A.** 86 nM

**Q.** B9 was tested. Which Kd did it give?
**A.** 51 nM

**Q.** How did the Kd turn out when B10 was run?
**A.** 46 nM

**Q.** B11 was tested. Which Kd did it give?
**A.** 10 nM

**Q.** With B12 as the binder, how does the Kd read?
**A.** 40 nM

**Q.** With B13 as the binder, how does the Kd read?
**A.** 44 nM
